Results taken from publication PMC8002998.

Target: T1, OhrR-C (chromosomal OhrR) (Acinetobacter baumannii ATCC 19606) (UniProt A0A077GRS4)
T1 sequence: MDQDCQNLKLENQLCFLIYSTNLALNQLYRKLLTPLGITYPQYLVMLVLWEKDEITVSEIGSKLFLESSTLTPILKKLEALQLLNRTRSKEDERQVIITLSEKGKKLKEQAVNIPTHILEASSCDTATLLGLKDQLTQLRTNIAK
Experiment: EMSA
Conditions: 20 mM Tris-HCl pH 7.5, 100 mM MgCl2, 150 mM KCl, 50 mM EDTA, 12.5% glycerol, 250 uM DTT, 830 ng/mL poly(dI-dC), 250 ng/mL BSA, 50 nM DNA; room temperature …

“TGTATATTACCTTGCTTAATATTATATTGTGTAAAATATAATTGCACACAATTAAATATAGGTCAATTATTTTCCTTTGTTTTTTATTTAACATAATGGGCGTTATATGAAATTCAAAAAAATGATACTATTTTTGTGATAATTAAATAAATTTTAGGTGAACATAAGTTAAATAGAGCTTATATCGGCC (double strand) [Pohr-p]” was tested, and the binding was “binds more weakly”.
